PMC7855779
pKd: −log10 of the molar value. Like-named read-outs stand apart in the source and are kept apart here. Each block holds one substance with its values, some of them ahead of it.

Key:
[1] = target: MD2 (Homo sapiens) (UniProt Q9Y6Y9); conditions: cited from earlier work
[2] = target: MD2-TLR4 complex (rat (endogenous in NRK-52E)) (UniProt Q9QX05)
[3] = target: MD2-TLR4 complex (rat (endogenous in NRK-52E)) (UniProt Q9QX05); remark: listed apart in the source
[4] = target: MD2 (Homo sapiens) (UniProt Q9Y6Y9); conditions: cited from earlier work; remark: listed apart in the source

Sequence of UniProt Q9QX05 (Q9QX05 whole entry, looked up, one chain of several): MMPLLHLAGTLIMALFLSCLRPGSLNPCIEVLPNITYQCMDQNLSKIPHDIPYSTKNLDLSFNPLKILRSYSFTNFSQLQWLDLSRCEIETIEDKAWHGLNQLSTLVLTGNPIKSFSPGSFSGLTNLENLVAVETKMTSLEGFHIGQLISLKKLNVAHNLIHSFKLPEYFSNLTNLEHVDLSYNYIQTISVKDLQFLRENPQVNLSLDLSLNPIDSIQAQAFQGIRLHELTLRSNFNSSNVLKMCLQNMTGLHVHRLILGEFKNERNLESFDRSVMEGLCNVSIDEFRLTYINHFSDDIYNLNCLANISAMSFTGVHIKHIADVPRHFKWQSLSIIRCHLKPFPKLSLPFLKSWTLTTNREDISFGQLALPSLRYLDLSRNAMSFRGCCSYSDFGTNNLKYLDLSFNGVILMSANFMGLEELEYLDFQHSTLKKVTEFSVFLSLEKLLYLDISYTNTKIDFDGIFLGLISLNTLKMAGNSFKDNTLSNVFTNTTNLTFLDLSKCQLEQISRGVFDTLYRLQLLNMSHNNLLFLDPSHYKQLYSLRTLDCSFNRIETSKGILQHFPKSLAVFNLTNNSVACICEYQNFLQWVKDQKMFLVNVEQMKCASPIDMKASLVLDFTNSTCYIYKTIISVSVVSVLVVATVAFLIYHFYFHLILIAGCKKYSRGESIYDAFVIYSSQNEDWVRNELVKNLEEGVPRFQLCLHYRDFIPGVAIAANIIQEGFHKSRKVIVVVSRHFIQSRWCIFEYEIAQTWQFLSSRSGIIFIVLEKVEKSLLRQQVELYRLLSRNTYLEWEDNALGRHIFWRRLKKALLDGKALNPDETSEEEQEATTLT
Sequence of UniProt Q9Y6Y9 (Q9Y6Y9 19-160): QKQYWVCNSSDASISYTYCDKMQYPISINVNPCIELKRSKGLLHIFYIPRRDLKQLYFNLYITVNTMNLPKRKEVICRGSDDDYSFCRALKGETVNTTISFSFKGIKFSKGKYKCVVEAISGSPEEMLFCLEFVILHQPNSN

Substance: Angiotensin II (from UniProt P01019)
pKd [1]: 3.70

IL-6 content of the media of NRK-52E cells (ELISA), Ang II 1 μM against control [2]: 15 pg/mL
IL-6 content of the media of NRK-52E cells (ELISA), Ang II 1 μM against control [3]: 61 pg/mL
Substance: Angiotensin II (peptide)

Substance: HMGB1 (from UniProt P09429)
pKd [4]: 6.22
